We go through 4 substances from paper doi:10.1101/2021.12.06.471393.

This assay concerns the target CRISPR-Lon protease (Sulfurihydrogenibium sp. YO3AOP1). Briefly: SEC-MALS. For orientation: SEC sorts molecules by how far they enter the pores of the column.

On to CRISPR-T protein (natural protein), for which the stoichiometry N (CRISPR-T per CRISPR-Lon) amounted to 1.

For CRISPR-T A181E (natural protein), the stoichiometry N (CRISPR-T variant per CRISPR-Lon) amounted to 1.

With CRISPR-T A194E (natural protein), the stoichiometry N (CRISPR-T variant per CRISPR-Lon) worked out at 1.

In the case of CRISPR-T A171E (natural protein), the stoichiometry N (CRISPR-T variant per CRISPR-Lon) was 1.
